Experimental data: publication PMC5598764

Target: Porcine skeletal actin, pyrene-labeled (porcine) (UniProt P68137)
Assay: stopped-flow fluorescence

## Cardiac myosin from porcine left ventricular tissue (from UniProt P79293 1-1935) (complex)
  kon: 0.35 M⁻¹ s⁻¹
